Experimental findings from the supplement of paper PMC9112550, “Optimization of the antimicrobial peptide Bac7 by deep mutational scanning” (BMC Biology, 2022) are described below.
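Note: peptides expressed intracellularly from a pBAD plasmid library in pooled LB shake-flask culture, induced with 0.3% L-arabinose, DNA abundance read by NGS, three biological replicates, DESeq2 with apeglm shrinkage.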

In the data set the test system is Escherichia coli TOP10. Description: shrunken log2 fold change of peptide-encoding DNA abundance (4.5 h post-induction vs induction); higher = less antimicrobial activity (less host growth inhibition). The following applies: time post-induction: 4.5 h; library: site-saturation at positions 5, 18, 19, 20.
Turning to RRIRNRPPRLPRPRPRPIVGPRP, the “shrunken log2 fold change” value stood at 0.003.

RRIRMRPPRLPRPRPRPQNSPRP: the “shrunken log2 fold change” value was -0.0933.

As for RRIRPRPPRLPRPRPRPETWPRP, the “shrunken log2 fold change” value came to 0.1.

Regarding RRIRHRPPRLPRPRPRPSPKPRP, the “shrunken log2 fold change” value is -0.0976.

Turning to RRIRPRPPRLPRPRPRPMPAPRP, the “shrunken log2 fold change” value is 0.0935.

For RRIRIRPPRLPRPRPRPIQAPRP, the “shrunken log2 fold change” value was -0.209.

As to RRIRPRPPRLPRPRPRPHYHPRP, the “shrunken log2 fold change” value is -0.936.

As to RRIRDRPPRLPRPRPRPDYWPRP, the “shrunken log2 fold change” value was -0.00116.

On to RRIRMRPPRLPRPRPRPKKKPRP, for which the “shrunken log2 fold change” value is 1.61.

As for RRIRQRPPRLPRPRPRPILMPRP, the “shrunken log2 fold change” value turned out to be 0.0271.

On to RRIRVRPPRLPRPRPRPLCDPRP, for which the “shrunken log2 fold change” value is -0.108.

On to RRIRKRPPRLPRPRPRPIHPPRP, for which the “shrunken log2 fold change” value is 0.0728.

As to RRIRPRPPRLPRPRPRPDRMPRP, the “shrunken log2 fold change” value was -0.234.

With RRIRNRPPRLPRPRPRPLPWPRP, the “shrunken log2 fold change” value was 0.00924.

Turning to RRIRQRPPRLPRPRPRPEYCPRP, the “shrunken log2 fold change” value was -0.0411.

On to RRIRLRPPRLPRPRPRPTLRPRP, for which the “shrunken log2 fold change” value was 0.161.

In the case of RRIRGRPPRLPRPRPRPAVWPRP, the “shrunken log2 fold change” value is 0.71.

Turning to RRIRRRPPRLPRPRPRPGGLPRP, the “shrunken log2 fold change” value is 0.289.

As to RRIRARPPRLPRPRPRPTHPPRP, the “shrunken log2 fold change” value came to 0.586.

Take RRIRRRPPRLPRPRPRPTFIPRP: the “shrunken log2 fold change” value is -0.0768.

Take RRIRHRPPRLPRPRPRPQQVPRP: the “shrunken log2 fold change” value was -0.0214.

RRIRDRPPRLPRPRPRPWVCPRP: the “shrunken log2 fold change” value was -0.0108.

On to RRIRRRPPRLPRPRPRPEMFPRP, for which the “shrunken log2 fold change” value is -0.151.

As for RRIRCRPPRLPRPRPRPQYAPRP, the “shrunken log2 fold change” value is -0.231.

Consider RRIRRRPPRLPRPRPRPHWHPRP, for which the “shrunken log2 fold change” value was 0.0772.

As for RRIRMRPPRLPRPRPRPTIQPRP, the “shrunken log2 fold change” value amounted to 0.318.

Regarding RRIRCRPPRLPRPRPRPRPMPRP, the “shrunken log2 fold change” value turned out to be 0.443.

RRIRWRPPRLPRPRPRPAGSPRP: the “shrunken log2 fold change” value is -0.176.

In the case of RRIRYRPPRLPRPRPRPFVDPRP, the “shrunken log2 fold change” value is -0.0498.

Regarding RRIRPRPPRLPRPRPRPSCCPRP, the “shrunken log2 fold change” value was -0.0575.

Consider RRIRNRPPRLPRPRPRPDDKPRP, for which the “shrunken log2 fold change” value is -0.0189.

With RRIRPRPPRLPRPRPRPNCKPRP, the “shrunken log2 fold change” value is -0.048.

With RRIRMRPPRLPRPRPRPIFVPRP, the “shrunken log2 fold change” value was -0.111.

In the case of RRIRCRPPRLPRPRPRPTIRPRP, the “shrunken log2 fold change” value is -0.312.

Consider RRIRHRPPRLPRPRPRPNIPPRP, for which the “shrunken log2 fold change” value is -0.234.

On to RRIRVRPPRLPRPRPRPKCWPRP, for which the “shrunken log2 fold change” value worked out at 0.313.

As to RRIRIRPPRLPRPRPRPMHEPRP, the “shrunken log2 fold change” value was -0.0221.

For the sequence RRIRYRPPRLPRPRPRPQRPPRP, the “shrunken log2 fold change” value is 0.376.

RRIRARPPRLPRPRPRPRKGPRP: the “shrunken log2 fold change” value was 0.365.

Turning to RRIRFRPPRLPRPRPRPCYEPRP, the “shrunken log2 fold change” value is -0.228.

As to RRIRFRPPRLPRPRPRPTNYPRP, the “shrunken log2 fold change” value is -0.587.

On to RRIRVRPPRLPRPRPRPQPLPRP, for which the “shrunken log2 fold change” value is -0.109.

Turning to RRIRNRPPRLPRPRPRPKRYPRP, the “shrunken log2 fold change” value amounted to 0.0391.

Take RRIRARPPRLPRPRPRPPPEPRP: the “shrunken log2 fold change” value is 1.24.

Take RRIRIRPPRLPRPRPRPAIYPRP: the “shrunken log2 fold change” value is -0.00708.

Consider RRIRDRPPRLPRPRPRPAFCPRP, for which the “shrunken log2 fold change” value came out at 0.111.

In the case of RRIRQRPPRLPRPRPRPEGCPRP, the “shrunken log2 fold change” value was -0.0749.

RRIRGRPPRLPRPRPRPGGSPRP: the “shrunken log2 fold change” value amounted to 0.92.

For RRIRMRPPRLPRPRPRPEFTPRP, the “shrunken log2 fold change” value is 0.101.

As for RRIRVRPPRLPRPRPRPNLCPRP, the “shrunken log2 fold change” value was -0.292.

Consider RRIRPRPPRLPRPRPRPTETPRP, for which the “shrunken log2 fold change” value was 0.132.

In the case of RRIRWRPPRLPRPRPRPYEGPRP, the “shrunken log2 fold change” value is -0.874.

On to RRIRVRPPRLPRPRPRPITRPRP, for which the “shrunken log2 fold change” value is -0.0188.

Turning to RRIRMRPPRLPRPRPRPHDHPRP, the “shrunken log2 fold change” value is -0.0397.

RRIRHRPPRLPRPRPRPEPWPRP: the “shrunken log2 fold change” value stood at 0.171.

Turning to RRIRGRPPRLPRPRPRPSGNPRP, the “shrunken log2 fold change” value amounted to 0.18.

For RRIRMRPPRLPRPRPRPSWCPRP, the “shrunken log2 fold change” value came to 0.387.

As to RRIRPRPPRLPRPRPRPPMNPRP, the “shrunken log2 fold change” value is -0.036.

Consider RRIRCRPPRLPRPRPRPRKLPRP, for which the “shrunken log2 fold change” value was 0.0902.

RRIRPRPPRLPRPRPRPNELPRP: the “shrunken log2 fold change” value was -0.313.

Consider RRIRQRPPRLPRPRPRPPTMPRP, for which the “shrunken log2 fold change” value was determined as 0.29.

On to RRIRGRPPRLPRPRPRPKWLPRP, for which the “shrunken log2 fold change” value was found to be 0.749.

As for RRIRQRPPRLPRPRPRPMCCPRP, the “shrunken log2 fold change” value is 0.0301.

Turning to RRIRYRPPRLPRPRPRPNRPPRP, the “shrunken log2 fold change” value stood at 0.000655.

With RRIRRRPPRLPRPRPRPWWHPRP, the “shrunken log2 fold change” value was 0.0484.

As for RRIRDRPPRLPRPRPRPFVTPRP, the “shrunken log2 fold change” value is -0.0344.

RRIRFRPPRLPRPRPRPWRCPRP: the “shrunken log2 fold change” value came to 0.174.

Take RRIRLRPPRLPRPRPRPRRDPRP: the “shrunken log2 fold change” value was 0.2.

As to RRIRPRPPRLPRPRPRPNIEPRP, the “shrunken log2 fold change” value is -0.294.

On to RRIRIRPPRLPRPRPRPHQNPRP, for which the “shrunken log2 fold change” value was -0.165.

For RRIRFRPPRLPRPRPRPQRPPRP, the “shrunken log2 fold change” value came out at 0.203.

Take RRIRVRPPRLPRPRPRPHPNPRP: the “shrunken log2 fold change” value was -0.00326.

On to RRIRTRPPRLPRPRPRPGNKPRP, for which the “shrunken log2 fold change” value is -0.0505.

For RRIRGRPPRLPRPRPRPGAPPRP, the “shrunken log2 fold change” value stood at 1.29.

Take RRIRIRPPRLPRPRPRPAQAPRP: the “shrunken log2 fold change” value was 0.2.

In the case of RRIRHRPPRLPRPRPRPKGPPRP, the “shrunken log2 fold change” value turned out to be 0.216.

In the case of RRIRARPPRLPRPRPRPLDAPRP, the “shrunken log2 fold change” value was 0.746.

RRIRIRPPRLPRPRPRPLVKPRP: the “shrunken log2 fold change” value is -0.0899.

On to RRIRWRPPRLPRPRPRPDIKPRP, for which the “shrunken log2 fold change” value is -0.323.

Regarding RRIRNRPPRLPRPRPRPCPCPRP, the “shrunken log2 fold change” value is -0.0945.

Regarding RRIRHRPPRLPRPRPRPCYIPRP, the “shrunken log2 fold change” value is -0.0479.

RRIRNRPPRLPRPRPRPYQVPRP: the “shrunken log2 fold change” value is -0.0131.

On to RRIRTRPPRLPRPRPRPPSAPRP, for which the “shrunken log2 fold change” value is 0.442.

As for RRIRYRPPRLPRPRPRPPNRPRP, the “shrunken log2 fold change” value is -0.0643.

Take RRIRQRPPRLPRPRPRPYCWPRP: the “shrunken log2 fold change” value was -0.554.

RRIRLRPPRLPRPRPRPCIYPRP: the “shrunken log2 fold change” value is -1.16.

RRIRGRPPRLPRPRPRPTTKPRP: the “shrunken log2 fold change” value worked out at 1.

As to RRIRFRPPRLPRPRPRPKNLPRP, the “shrunken log2 fold change” value was -0.225.

As to RRIRTRPPRLPRPRPRPCEPPRP, the “shrunken log2 fold change” value is -0.0796.

Turning to RRIRTRPPRLPRPRPRPHVWPRP, the “shrunken log2 fold change” value was determined as 0.272.

For RRIRPRPPRLPRPRPRPIYLPRP, the “shrunken log2 fold change” value was -0.379.

As to RRIRSRPPRLPRPRPRPFDTPRP, the “shrunken log2 fold change” value is -0.201.

With RRIRHRPPRLPRPRPRPPPGPRP, the “shrunken log2 fold change” value stood at 0.769.

On to RRIRVRPPRLPRPRPRPIGIPRP, for which the “shrunken log2 fold change” value is -0.415.

As to RRIRLRPPRLPRPRPRPKYEPRP, the “shrunken log2 fold change” value was -0.0397.

With RRIRNRPPRLPRPRPRPKGKPRP, the “shrunken log2 fold change” value was 0.0351.

Regarding RRIRTRPPRLPRPRPRPIAKPRP, the “shrunken log2 fold change” value is -0.3.

RRIRVRPPRLPRPRPRPFMFPRP: the “shrunken log2 fold change” value is -0.433.

For the sequence RRIRNRPPRLPRPRPRPLVFPRP, the “shrunken log2 fold change” value is -0.147.

Turning to RRIRMRPPRLPRPRPRPKTTPRP, the “shrunken log2 fold change” value was determined as 1.09.

For the sequence RRIRTRPPRLPRPRPRPFLMPRP, the “shrunken log2 fold change” value is -0.378.

As to RRIRCRPPRLPRPRPRPMEQPRP, the “shrunken log2 fold change” value was -0.00403.

Take RRIRLRPPRLPRPRPRPIIAPRP: the “shrunken log2 fold change” value was -0.0536.

Consider RRIRSRPPRLPRPRPRPRSEPRP, for which the “shrunken log2 fold change” value came to 0.0656.

Consider RRIRGRPPRLPRPRPRPNDFPRP, for which the “shrunken log2 fold change” value is -0.000929.

For the sequence RRIRARPPRLPRPRPRPYNHPRP, the “shrunken log2 fold change” value was -0.402.

For RRIRPRPPRLPRPRPRPFGWPRP, the “shrunken log2 fold change” value is 0.328.

Turning to RRIRLRPPRLPRPRPRPWCHPRP, the “shrunken log2 fold change” value was -0.441.

Take RRIRPRPPRLPRPRPRPFPCPRP: the “shrunken log2 fold change” value was -0.0101.

Take RRIRDRPPRLPRPRPRPHCNPRP: the “shrunken log2 fold change” value was -0.226.

Consider RRIRERPPRLPRPRPRPDLTPRP, for which the “shrunken log2 fold change” value turned out to be 0.0375.

Consider RRIRLRPPRLPRPRPRPTFSPRP, for which the “shrunken log2 fold change” value was -0.0485.

As for RRIRIRPPRLPRPRPRPGHMPRP, the “shrunken log2 fold change” value turned out to be 0.0184.

In the case of RRIRGRPPRLPRPRPRPPMVPRP, the “shrunken log2 fold change” value stood at 0.277.

As to RRIRIRPPRLPRPRPRPDKDPRP, the “shrunken log2 fold change” value was -0.0993.

For RRIRCRPPRLPRPRPRPIEIPRP, the “shrunken log2 fold change” value is -0.223.

As to RRIRWRPPRLPRPRPRPIPCPRP, the “shrunken log2 fold change” value was -0.0198.

Take RRIRQRPPRLPRPRPRPQNYPRP: the “shrunken log2 fold change” value is 0.0103.

As for RRIRGRPPRLPRPRPRPSQQPRP, the “shrunken log2 fold change” value is -0.147.

For the sequence RRIRLRPPRLPRPRPRPEMMPRP, the “shrunken log2 fold change” value is 2.57.

As to RRIRIRPPRLPRPRPRPDPMPRP, the “shrunken log2 fold change” value was -0.205.

With RRIRGRPPRLPRPRPRPEPPPRP, the “shrunken log2 fold change” value came to 1.79.

With RRIRSRPPRLPRPRPRPCDQPRP, the “shrunken log2 fold change” value is -0.0341.

On to RRIRGRPPRLPRPRPRPHQRPRP, for which the “shrunken log2 fold change” value stood at 0.23.

In the case of RRIRKRPPRLPRPRPRPDIWPRP, the “shrunken log2 fold change” value stood at 0.211.
